# Test results reported in PMC4899725, “The transcriptional regulator GalR self-assembles to form highly regular tubular structures” (Scientific Reports, 2016).
# Experiments:
# [1] = target: the molecule itself; assay: light scattering; 2 uM GalR diluted from a stock in 1 M NaCl into 50 mM TrisCl pH 8 with 78-1000 mM NaCl (or 25-700 mM Na2SO4 with 78 mM NaCl); 365 nm, stirring, room temperature; dimers to aggregates at low ionic strength
# [2] = target: the molecule itself; assay: dynamic light scattering; 6.4 uM GalR^T322R, 20 °C, 250 mM NaCl; monomers to dimer
# [3] = target: the molecule itself; assay: negative staining transmission electron microscopy; 3.8 uM GalR, 50 mM Tris:Cl pH 8, 250 mM NaCl unless otherwise stated (GalR^N48I: 150 mM NaCl); flash-frozen, stained with 1% phosphotungstic acid; dimers to ordered aggregates
protein,measurement,setting,value
"Gal repressor GalR, wild type (GalR^WT), hexahistidine-tagged (natural protein, Escherichia coli, UniProt P03024 1-343, looked up, GalR, the Gal repressor of Escherichia coli; 37 kDa subunit) MATIKDVARLAGVSVATVSRVINNSPKASEASRLAVHSAMESLSYHPNANARALAQQTTETVGLVVGDVSDPFFGAMVKAVEQVAYHTGNFLLIGNGYHNEQKERQAIEQLIRHRCAALVVHAKMIPDADLASLMKQMPGMVLINRILPGFENRCIALDDRYGAWLATRHLIQQGHTRIGYLCSNHSISDAEDRLQGYYDALAESGIAANDRLVTFGEPDESGGEQAMTELLGRGRNFTAVACYNDSMAAGAMGVLNDNGIDVPGEISLIGFDDVLVSRYVRPRLTTVRYPIVTMATQAAELALALADNRPLPEITNVFSPTLVRRHSVSTPSLEASHHATSD",binding result,[1],binds
"GalR^T322R, hexahistidine-tagged (natural protein, Escherichia coli, UniProt P03024 1-343, looked up, GalR of Escherichia coli with T322R; Tetramer formation is strongly impaired in this mutant (cited); also called non-tetramerizing GalR mutant; source: expressed from vector plasmid pSEM1026 under an L-arabinose inducible promoter, purified) MATIKDVARLAGVSVATVSRVINNSPKASEASRLAVHSAMESLSYHPNANARALAQQTTETVGLVVGDVSDPFFGAMVKAVEQVAYHTGNFLLIGNGYHNEQKERQAIEQLIRHRCAALVVHAKMIPDADLASLMKQMPGMVLINRILPGFENRCIALDDRYGAWLATRHLIQQGHTRIGYLCSNHSISDAEDRLQGYYDALAESGIAANDRLVTFGEPDESGGEQAMTELLGRGRNFTAVACYNDSMAAGAMGVLNDNGIDVPGEISLIGFDDVLVSRYVRPRLTTVRYPIVTMATQAAELALALADNRPLPEITNVFSPRLVRRHSVSTPSLEASHHATSD",binding result,[2],binds
"GalR^N48I, hexahistidine-tagged (natural protein, Escherichia coli, UniProt P03024 1-343, looked up, GalR of Escherichia coli with N48I; source: expressed from vector plasmid pSEM1026 under an L-arabinose inducible promoter, purified) MATIKDVARLAGVSVATVSRVINNSPKASEASRLAVHSAMESLSYHPIANARALAQQTTETVGLVVGDVSDPFFGAMVKAVEQVAYHTGNFLLIGNGYHNEQKERQAIEQLIRHRCAALVVHAKMIPDADLASLMKQMPGMVLINRILPGFENRCIALDDRYGAWLATRHLIQQGHTRIGYLCSNHSISDAEDRLQGYYDALAESGIAANDRLVTFGEPDESGGEQAMTELLGRGRNFTAVACYNDSMAAGAMGVLNDNGIDVPGEISLIGFDDVLVSRYVRPRLTTVRYPIVTMATQAAELALALADNRPLPEITNVFSPTLVRRHSVSTPSLEASHHATSD",binding result,[3],binds
